According to FireProtDB (doi:10.1016/j.jmb.2009.11.038):

B1: P7S|H8S, Q5NV88 (parent)
chain: NFMLTQPHSVSESPGKTVTISCTRSSGSIASNYVQWYQQRPGSSPTTVIYEDNQRPSGVPDRFSGSIDSSSNSASLTISGLKTEDEADYYCQSYDSSN

Variants of: B1
Conditions: Homo sapiens, pH 7.5, Fluorescence, Sodium phosphate 20mM, transition: 2, structure 2W0K, whole UniProt chain shown

Variant | Tm (Thermal) | change of melting temperature, mutant - wild type (higher = more stable) (Thermal) | ddG of mutation (higher = less stable) (Thermal) | unfolding enthalpy (calorimetric) (Thermal) | unfolding free energy (Thermal) | ddG of mutation (higher = less stable) (25 °C, GdnHCl) | denaturant midpoint (higher = more stable) (25 °C, GdnHCl) | unfolding free energy (25 °C, GdnHCl)
NFMLTQSSSVSESPGKTVTISCTRSSGSIASNYVQWYQQRPGSSPTTVIYEDNQRPSGVPDRFSGSIDSSSNSASLTISGLKTEDEADYYCQSYDSSN | 43.7 °C | -6.2 °C | 1.4 kcal/mol | 79.4 kcal/mol | 3.8 kcal/mol | – | – | –
NFMLTQPSSVSESPGKTVTISCTRSSGSIASNYVQWYQQRPGSSPTTVIYEDNQRPSGVPDRFSGSIDSSSNSASLTISGLKTEDEADYYCQSYDSSN | 49.5 °C | -0.4 °C | 0.2 kcal/mol | 84.4 kcal/mol | 5 kcal/mol | 0.6 kcal/mol | 1.28 M | 4.5 kcal/mol
NFMLTQPPSVSESPGKTVTISCTRSSGSIASNYVQWYQQRPGSSPTTVIYEDNQRPSGVPDRFSGSIDSSSNSASLTISGLKTEDEADYYCQSYDSSN | 50.1 °C | 0.2 °C | 0.8 kcal/mol | 84.8 kcal/mol | 4.4 kcal/mol | – | – | –
NFMLTQSHSVSESPGKTVTISCTRSSGSIASNYVQWYQQRPGSSPTTVIYEDNQRPSGVPDRFSGSIDSSSNSASLTISGLKTEDEADYYCQSYDSSN | 43 °C | -6.9 °C | 1.5 kcal/mol | 79.5 kcal/mol | 3.7 kcal/mol | 2.6 kcal/mol | 0.84 M | 2.5 kcal/mol
